One block for each binder: values may come before it.
Assays:
[1] = target: T1, PSMGFR peptide (Primary Sequence of the MUC1 Growth Factor Receptor); experiment: binding assay on peptide
T1 construct: 45-residue peptide from the extracellular domain of cleaved MUC1 (MUC1*); also called MUC1* peptide; MUC1* extra cellular domain peptide
T1 peptide: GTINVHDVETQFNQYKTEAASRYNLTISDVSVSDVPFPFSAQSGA

dimeric NME1 = target: T2, dimeric NME1 (human, UniProt P15531 1-152, limits assumed); experiment: binding assay on peptide
T2 construct: The construct used is not described; also called NM23-H1 dimers; dimeric NM23-H1
T2 sequence (P15531 whole entry): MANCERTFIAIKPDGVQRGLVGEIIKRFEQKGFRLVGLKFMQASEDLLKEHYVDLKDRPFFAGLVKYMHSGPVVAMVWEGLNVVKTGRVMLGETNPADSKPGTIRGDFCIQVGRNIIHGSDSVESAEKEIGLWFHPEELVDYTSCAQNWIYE

NME7-AB = target: T3, NME7-AB (UniProt Q9Y5B8 92-376); experiment: binding assay on peptide
T3 sequence (looked up): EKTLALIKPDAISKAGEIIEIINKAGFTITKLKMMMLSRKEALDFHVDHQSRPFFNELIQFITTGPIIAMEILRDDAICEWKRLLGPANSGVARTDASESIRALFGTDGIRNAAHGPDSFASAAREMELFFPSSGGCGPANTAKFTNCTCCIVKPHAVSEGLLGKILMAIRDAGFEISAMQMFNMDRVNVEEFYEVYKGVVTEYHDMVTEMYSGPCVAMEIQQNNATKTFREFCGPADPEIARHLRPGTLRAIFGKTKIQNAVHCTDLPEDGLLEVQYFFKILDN

[2] = target: T1, PSMGFR peptide (Primary Sequence of the …); experiment: binding to peptide; assay not described

B1: mouse monoclonal antibody MN-E6 (antibody, V domains shown)
VH: EVKVVESGGDLVKPGGSLKLSCVVSGFTFSRYGMSWVRQTPGKRLEWVATISGGGTYIYYPDSVKGRFTISRDNAKNTLYLQMSSLKSEDTAMYHCTRDNYGRNYDYGMDYWGQGTSVTVSS
VL: QIVLTQSPAIMSASPGEEVTLTCSATSSVSYIHWFQQRPGTSPKLWIYSTSNLASGVPVRFSGSGYGTSYSLTISRMEAEDAATYYCQQRSSSPFTFGSGTKLEIK
notes: also called Min-E6
binding result [1]: binds

B3: mouse monoclonal antibody MN-C3 (antibody, V domains shown)
VH: QVQLQQSGPELVRPGVSVKISCKGSGYRFTDYAMNWVKQSHAKSLEWIGVISTFSGNTNFNQKFKGKATMTVDKSSSTAYMELARLTSEDSAMYYCARSDYYGPYFDYWGQGTTLTVSS
VL: DVLMTQTPLSLPVSLGDQASISCRSSQTIVHSNGNTYLEWYLQKPGQSPKLLIYKVSNRFSGVPDRFSGSGSGTDFTLKINRVEAEDLGVYYCFQGSHVPFTFGSGTKLEIK
notes: also called Min-C3
binding result [2]: binds

Continued, values first:

binding result (dimeric NME1): no binding | binding result (NME7-AB): no binding
Binder: GTINVHDVETQFNQYKTEAASRYNLTISDVSVSDV (also called C-10 PSMGFR) [PSMGFR peptide lacking the 10 C-terminal amino acids]

binding result [1]: binds
B2: mouse monoclonal antibody MN-C2 (antibody, V domains shown)
VH: EVQLEESGGGLVKPGGSLKLSCAASGFTFSGYAMSWVRQTPEKRLEWVATISSGGTYIYYPDSVKGRFTISRDNAKNTLYLQMSSLRSEDTAMYYCARLGGDNYYEYFDVWGAGTTVTVSS
VL: DIVITQSTASLGVSLGQRATISCRASKSVSTSGYSYMHWYQQRPGQPPKLLIYLASNLESGVPARFSGSGSGTDFTLNIHPVEEEDAATYYCQHSRELPFTFGGGTKLEIKR
notes: The printed entries run a few residues into the constant region; also called Min-C2

Reference: patent US20200405832A1 (MINERVA BIOTECHNOLOGIES, published 2020)
